Consider 41 sequences from the nanobody polyreactivity screen of Harvey et al. (2022).

A short description of this series: yeast display, Sf9 membrane polyspecificity reagent, FACS + sequencing; frameworks hold sequencing errors. A digest of the protocol:
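Sorting gates, low and high (top ~1%), were placed on anti-HA fluorescence to track expression and on streptavidin fluorescence to track reagent binding. A clone's polyreactivity label is taken from the gate it came out of. The reagent was 10% biotinylated, detergent-solubilized Sf9 membrane, applied for 1 hour at 4 °C to galactose-induced yeast display cells.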
For “QVQLVESGGGLVQAGGSLRLICAASGIIFYGYGMGWYRQARGKERELVAAITRSGGRTYYADSVKGRFTISRDNAKNTVYLQMNSLKPEDTAVYYCAAKRRTGGNGYWGQGTQVTVSS”, the “polyreactivity (PSR sort gate)” value is recorded as “high polyreactivity”.

Take “QVQLVESGGGLVQAGGSLRLICAASGIIFYVNAMGWYRQAPGKERELVAAITRGGTTYYADSVKGRFTISRDNAKNTVYLQMNSLKPEDTAVYYCAARLRYTTGIYYYWGQGTQVTVSS”: the “polyreactivity (PSR sort gate)” value was “high polyreactivity”. Regarding “QVQLVESGGGLVQAGGSLRLICAASGIIFYVYAMGWYRQAPGKERELVAAISFRGTSTYADSVKGRFTISRDNAKNTVYLQLNSLKPEDTAVYYCAVTGFDVLWPSLGGVLDYWGQGTQVTVSS”, the “polyreactivity (PSR sort gate)” value was “low polyreactivity”. In the case of “QVQLVESGGGLVQAGGSLRLICAASGITFYRNARGWYRQAPGKERELVAAITSGTSTYYADSVKGRFTISRDNAKFTVYLQMISLKPEDTAVYYCAKRTPPGYYGFDYWGQGTQVNVSS” it was “low polyreactivity”; in that of “QVQLVESGGGLVQAGGSLRLICAASGLIFSYYAMGWYRQAPGKERELVAAISRGGSTNYADSVKGRFTISRDNAKNTVYLQMNSLKPEDTAVYYCAARFVVRRDYGYWGQGTQVTVSS”, “high polyreactivity”; in that of “QVQLVESGGGLVQAGGSLRLICAASGLIFVYYAMGWYRQAPGKERELVAAIDWSSTRTYYADSVKGRFTISRDNATNTVYLQMNSLKPEDTAVYYCAAESRYLSWFDYWGQGTQVTVSS”, “high polyreactivity”. Regarding “QVQLVESGGGLVQAGGSLRLICAASGLTFKQYVMGWYRQAPGKERELVAAIHNGTSTYYADSVKGRFTISRDNAKNTVYLQMNSLKPEDTAVYYCAADGLGFNTYDYWGQGTQVTVSS”, the “polyreactivity (PSR sort gate)” value is listed as “low polyreactivity”. Regarding “QVQLVESGGGLVQAGGSLRLICAASGLTFTYYAMGWYRQAPGKERELVATISSSGRTNYADSVKGRFTISRDNAKNTVYLQMNSLKPEDTAVYYCAATLYHYWYADFDYWGQGTQVTVSS”, the “polyreactivity (PSR sort gate)” value is given as “high polyreactivity”.

Take “QVQLVESGGGLVQAGGSLRLICAASGLTYFSYAMGWYRQAPGKQREFVAAITRRGGRTYYADSVKGRFTISRDNAKYTVYLQMNSLKPEDTAVYYCNAVPVLISVYRMEYWGQGTQVTVSS”: the “polyreactivity (PSR sort gate)” value was “high polyreactivity”. Turning to “QVQLVESGGGLVQAGGSLRLICAASGNIFGAYAMGWNIQAPGKERELVAVIRFDDGSTYYADSVKGRFTISRDNAKNTVYLQMNSLKPEDTAVDFCAVRLYLEMDYWGQGTQVTVSA”, the “polyreactivity (PSR sort gate)” value was “high polyreactivity”.

As to “QVQLVESGGGLVQAGGSLRLICAASGNTFRYYAMGWYRQAPGKERELDAAINSRGGTTSYADSVKGRFTISRDNAKNTVYLQMNSLKPEDTAVYYCAARSYYRGTFYPYYYWGQGTQVTVSS”, the “polyreactivity (PSR sort gate)” value was “high polyreactivity”. With “QVQLVESGGGLVQAGGSLRLICAASGNTIIRYAIGWFRQAPGKERELVAAISYSGGRTYYADSVKGRFTISRDNAKNTVYLQMNSVKPEDTAVYYCNAASRYGGDYWGQGTQVTVSS”, the “polyreactivity (PSR sort gate)” value is on record as “low polyreactivity”. Turning to “QVQLVESGGGLVQAGGSLRLICAASGRIFGANAMGWYIQAPGKERELVAAISRTGGSKYYADSVKGRFTISRDNAKNTVYLQMNSLKPEDTAVYYCNAVYRYAHPMEYWGQGTQVTVSS”, the “polyreactivity (PSR sort gate)” value was “high polyreactivity”. In the case of “QVQLVESGGGLVQAGGSLRLICAASGRIFGGNAMGWYRQAPGKERELVAPISRSGGSTYYADSVKVRFTISLDNAKNTVYLQMNSLIPEDTAVYYCAAVRRPGTGKYTEYDYWGQGTQVTVSS”, the “polyreactivity (PSR sort gate)” value is listed as “high polyreactivity”.

In the case of “QVQLVESGGGLVQAGGSLRLICAASGRIFGLYAMGWYRQAPGKERELVAGITYSGGTTYYADSVKGRFPISRDNAKNTVYLQMNSLKPEDTAVYYCNKRWYYQYGQSHVRLYDYWGQGTQVTVSS”, the “polyreactivity (PSR sort gate)” value is reported as “high polyreactivity”. In the case of “QVQLVESGGGLVQAGGSLRLICAASGRIFGYYVMGWSRQSPGKERQLVAAIRSSADSTYYADSVKGRFTISRDNAKNTVYLQMNSLKPEDTAVYYCAAQSPAYYTKSYWGQGTQVTVSS”, the “polyreactivity (PSR sort gate)” value is reported as “low polyreactivity”. Consider “QVQLVESGGGLVQAGGSLRLICAASGRIFHYYAMGWYRQAPGKERELVAAIRWSGGDTYYADSVKGRFTISRDNAKNTVYLQMNSLKPEDTAVYYCAAYDHVYEYDYWGQGTQVTVSS”, for which the “polyreactivity (PSR sort gate)” value is reported as “low polyreactivity”.

In the case of “QVQLVESGGGLVQAGGSLRLICAASGRIFITNTMGWYRQAPGKETELVAAISRTGGSTYYADSVKGRFTISRDNAKNTVYLQMNSLKPEDTAVYFCNAVVRGYAQGAGFDYWGQGTQVTVSS”, the “polyreactivity (PSR sort gate)” value was “high polyreactivity”.

As for “QVQLVESGGGLVQAGGSLRLICAASGRIFKWYAMGWYRQAPGKERELVATITWSGGSTYYADSVKGRFTISRDNAKNTVYLQMNSLKPEDTAVYNCNADTWLALPGFDYWGQGTQVTVSS”, the “polyreactivity (PSR sort gate)” value was “high polyreactivity”.

On to “QVQLVESGGGLVQAGGSLRLICAASGRIFSKNAMGWYRQAPGKEREFVAAISRIGGRTYYADSVKGRFTISRDNAKNTVYFQMNSLKPEDTAVYYCATVHYGYTTSYDYWGQGTQVTVSS”, for which the “polyreactivity (PSR sort gate)” value was “high polyreactivity”. In the case of “QVQLVESGGGLVQAGGSLRLICAASGRIFWSNTMGWYRQAPGKERELVAAISGRGGSTYYADSVKGRFTISRDNAKNTVYLQMNSLKPEDTAVYYCAAKPTRSRKIYEYWGQGTQVTVSS”, the “polyreactivity (PSR sort gate)” value is recorded as “low polyreactivity”.

Regarding “QVQLVESGGGLVQAGGSLRLICAASGRIFYGYAMGWSRQAPGKERELVAAIRWSGGRTYYADSVKGRFTISRDNAKNTVYLQMNSLKPEATAVYYCAADYGYRSYVRFLSANYDYWGKGTQVTVSS”, the “polyreactivity (PSR sort gate)” value is recorded as “high polyreactivity”. Turning to “QVQLVESGGGLVQAGGSLRLICAASGRIFYSYSMGWSRPAPGKERELVATITTSGKTYYADSVNGRFTISRDNAKNTVYLQMNSLIPDDTAVYYCNAGWDLVYGYYPRRKIFDYWGQGTQVTVSS”, the “polyreactivity (PSR sort gate)” value was “high polyreactivity”. As to “QVQLVESGGGLVQAGGSLRLICAASGRILYYNVMVWYRQAPGKEREMVASITSVVSTNYADSVKGRFTISRDNAKNTVYLQMNSLKPEDTAVYYCAARYFSGSYSDQIWGMDYWGQGTQLTVSS”, the “polyreactivity (PSR sort gate)” value is “high polyreactivity”. In the case of “QVQLVESGGGLVQAGGSLRLICAASGRTFADYAMGWYRQAPGKERELVAAISWRGGSTYYADSVKGRFTISRDNAKITVYLQMNSLKPEDTAVYYSNKAYPAHYDYLGQGTQVTVSS” it was “low polyreactivity”.

As for “QVQLVESGGGLVQAGGSLRLICAASGRTFAPYAMGWYRQAPGKEMQLVAAISSGGGNTYYADSVKGRFTISRDNAKNTVYLQMNSLKPEDTAVYYCNAAQRRGGLGYWGQGTQVTVSS”, the “polyreactivity (PSR sort gate)” value was “high polyreactivity”. In the case of “QVQLVESGGGLVQAGGSLRLICAASGRTFGGNAMGWYRQAPGKERELVAAISSGGSTNYADSVNGRFTISRDNAKNTVYFLMNSLKPEDTAVYYCAADSKIGSFDSWGQGTQVTVSS” it was “low polyreactivity”; in that of “QVQLVESGGGLVQAGGSLRLICAASGRTFGRNAMGWYRQAPGKERELVAAISYGGGSTYYADSVKGRFTISRDNAKNTVYLQMNSLKPEDTPGSAAAARYAYGMWGQGTQVTVSS”, “low polyreactivity”. In the case of “QVQLVESGGGLVQAGGSLRLICAASGRTFGVYAMGWYRQAPGKERELVATIRTTGSTNYADSVKGRYTISRDNAKITVYLEMNSLKTEDTAVYYCAARQRQSKYYPYTTFTYDYWGQGTQVSVSS” it was “high polyreactivity”. As for “QVQLVESGGGLVQAGGSLRLICAASGRTFKYKAMGWSRQAPGKERELVAVISRGGSTYADSVKGRFTISRDNAKNTVYLQMNSLKAEDTAVYYCAVGRNSRQASERYGWYKYDYWGQGTQVTVSS”, the “polyreactivity (PSR sort gate)” value is listed as “high polyreactivity”. On to “QVQLVESGGGLVQAGGSLRLICAASGRTFPYNAMGWSRQAPGKERELVARITSGGRTYYADSVKGRFTISRDNAKNTVYLQMNSLKPEDPAVYYCAAETLRYYWKSYDWGQGTQVTVSA”, for which the “polyreactivity (PSR sort gate)” value is “high polyreactivity”. Regarding “QVQLVESGGGLVQAGGSLRLICAASGRTFRGDAMGWYRPAPGKERELVAAITKSGGSTYYADSVKGRFTISRDNAKNTVYLQMNSLKPEDTAVYYCAKLRSSRDYDYWGQVTQVTVSS”, the “polyreactivity (PSR sort gate)” value is listed as “high polyreactivity”. As for “QVQLVESGGGLVQAGGSLRLICAASGRTFRHNAMGWYRQAPGKERELVAAISSSGTNTHYADSVKGRFTISRDNAQNTVYLQMNSLKPEDTAVYYCAADRWGARRKQYHENGYWGQGTQVTVSS”, the “polyreactivity (PSR sort gate)” value is “high polyreactivity”. In the case of “QVQLVESGGGLVQAGGSLRLICAASGRTFRKYAMGWYRQAPGKERELVAAINRGGTTKYADSVKGRFTISRDNAKNTVYLQMNSLKPEDTAVYYCNAAYGGVFFYAYDYWGQGTQVTVSS” it was “low polyreactivity”; in that of “QVQLVESGGGLVQAGGSLRLICAASGRTFSTYAMGWYRQAPGKERELVAAISSGGGRTYYADSVKGRFTISRDNAKNTVYLQMNSLKPEDTAVYYCAADRYVRSRRSYEYWGQGTQVTVSS”, “low polyreactivity”; in that of “QVQLVESGGGLVQAGGSLRLICAASGRTFSYYAIAWYRPAPGKERELVAAINWSGTRTYYADSVTGRCTISRDNAKNTVYLQMNSLNPEDTAVYYCARRWVGYDYWGQGTQVTVSS”, “high polyreactivity”. As to “QVQLVESGGGLVQAGGSLRLICAASGRTFTLNVMGWYRQAPGKETEFVATITWGGGRTYYADSVKGRFTISRDNAKNTVYLQMNSLKPVDTAVYYCAGQLAKTIRGRGYNSWGQGTQVTVSS”, the “polyreactivity (PSR sort gate)” value is reported as “low polyreactivity”. As for “QVQLVESGGGLVQAGGSLRLICAASGRTFVYYAMGWYRQAPGKERELVAAITRSGGRTYYEDSVKGSFTISRDNAKNNVYLQMNSLKPEDTAVYYCAARYWDNPFWFDYWGQGTIVTVSS”, the “polyreactivity (PSR sort gate)” value is recorded as “high polyreactivity”. Take “QVQLVESGGGLVQAGGSLRLICAASGRTLAPNAMGWYRQAPGKERELVATITRGGTTNYADSVKGRFTISRDNAKNTVYLQMNSLKPEDTAVYYCAKAHYLGYYQRYDYWGQGTQVTVSS”: the “polyreactivity (PSR sort gate)” value is recorded as “low polyreactivity”. In the case of “QVQLVESGGGLVQAGGSLRLICAASGRTLDYYAMGWYRQAPGKERELVGAISQSDDSTYYADSVKGRFTISRDNSKNTVYLQMNILKPEDTAVNYCAAEIELFSPDGVGIYWYVYWGQGTQVYVSS” it was “high polyreactivity”. Consider “QVQLVESGGGLVQAGGSLRLICAASGRTLGGNDMGWYRQAPGKERELVAAITNSASTYADSVKGRFTISRDNAKNTVYLQMNSLKPEDTAVYYCNAPDPSDQHGDYWGQGTQVTVSS”, for which the “polyreactivity (PSR sort gate)” value is given as “low polyreactivity”.
